Assay [1] addresses T1, SARS-CoV-2 spike receptor-binding domain (RBD), monomeric (SARS-CoV-2, UniProt P0DTC2). As to the kind of experiment: BLI.
Assay [2] deals with T1, SARS-CoV-2 spike receptor-binding …. As to the kind of experiment: BLI. The source holds these as a separate data set. (BLI is a label-free optical method that tracks binding on a fibre tip over time.)

Positions count from the first letter of the chain named.

B1: MD62 (antibody, V domains shown)
VH: EVQLVQSGGGLIQPGGSLRLSCAASGVTVSSNYMTWVRQAPGKGLEWVSLIYSGGSTYYADSVKGRFTISRDNSKNTLYLQMNSLRAEDTAVYYCARDLQYYGMDVWGQGTMVTVSS
VL: AIRMTQSPSSVSASVGDRVTITCRASQDIGSWLGWYQQKPGKAPKLLIYAASSLAGGVPSRFSGSGSGTDFTLTISSLQPEDFATYYCQQANSFPLTFGGGTKLEIK
modifications: biotinylated when immobilised on the BLI sensor
Turning to B1, in assay [1], the koff (commonly a measure of how fast the partners let go of each other) is 0.00063 s⁻¹. Moreover, the equilibrium dissociation constant (Kd) (usually the equilibrium constant for the complex coming apart) in assay [2] was 4.8 nM.

B2: MD63 (antibody, V domains shown)
VH: QVTLKESGGGVVQPGRSLRLSCAASGFTFSSYAMHWVRQAPGKGLEHVSAISSDGGITYFADSVKGRFTISRDNSRNTLFLQMSSLRVEDTAVYYCVKDQDSNSWYDAFDIWGRGTMVTVSS
VL: not shown
modifications: biotinylated when immobilised on the BLI sensor
As for B2, the off-rate (koff) in assay [1] came out at 0.00053 s⁻¹. Also, binding in assay [2] was put at a Kd of 3.4 nM.

B3: MD67 (antibody, V domains shown)
VH: EVQLVESGGGLVQPGGSLRLSCAASGFTVSSNYMTWVRQAPGKGLEWVSVIYSGGSTFYADSVKGRFTISRHNSKNTLYLQMNSLRAEDTAVYYCARDLSVRGGMDVWGQGTTVTVSS
VL: not shown
modifications: biotinylated when immobilised on the BLI sensor
In the case of B3, in assay [1], the koff was 0.00075 s⁻¹.

B4: MD45 (antibody, V domains shown)
VH: B3 VH with E6Q, T113M
VL: EIVLTQSPGTLSLSPGERATLSCRASQSVNSSYLAWYQQKPGQAPRLLIYGASNRATGIPDRFSGSGSGTDFTLTISRLEPEDFAVYYCQQYGVSPEIIFGQGTRLEIK
modifications: biotinylated when immobilised on the BLI sensor
In assay [1], B4 came in with a koff of 0.00055 s⁻¹. The same molecule gave a Kd in assay [2] of 5.6 nM.

B5: MD29 (antibody, V domains shown)
VH: QMQLVQSGGGLVQPGGSLRLSCSASGFTFSTYVMNWVRQAPGKGPEHVSGISSDGGITYYADSVKGRFTISRDNSKNTLYLQMSSLRVEDTAVYYCVKDQDSSSWYDAFDIWGQGTMVTVSS
VL: NIRLTQSPSSLSASVGDRVTITCRATQSISSYLNWYQQKPGKAPNLLIYAASSLQSGVPSRFSGSGSGTDFTLTISSLQPEDFATYYCHQTYTSPYTFGQGTKLEIK
modifications: biotinylated when immobilised on the BLI sensor
As to B5, the koff in assay [1] was determined as 0.00014 s⁻¹.

B6: MD17 (antibody, V domains shown)
VH: B5 VH with Q1E, M2V, V5L, Q6E, P45L
VL: DIVMTQSPSSLSASVGDRVTITCRASQSISNYLNWYQQKLGKAPKLLTYAASRLQSGVPSRFSASGSGTEFTLTISSLQPEDFATYYCQQSYTTPLTFGGGTKLEIK
modifications: biotinylated when immobilised on the BLI sensor
Turning to B6, in assay [1], the koff was 0.00026 s⁻¹. Further, the Kd in assay [2] was found to be 2.6 nM.

B7: MD47 (antibody, V domains shown)
V domain 1: QMQLVQSGGGLVQPGGSLRLSCAASGFTFSSYAMSWVRQAPGKGLEWVSAISSGGSTYYADSVKGRFTISRDNSKNTLYLQMNSLRAEDTAVYYCAKDLVTAPSYEAFDIWGQGTMITVSS
V domain 2: NFMLTQPPSVSVAPGKTARITCGGNNIGSKSVHWYQQKPGQAPVLVIYYDSDRPSGIPERFSGSNSGNTATLTISRVEAGDEADYYCQVWDSSSHHHVVFGGGTKGTVL
modifications: biotinylated when immobilised on the BLI sensor
B7: the koff in assay [1] was 9e-05 s⁻¹. The Kd in assay [2] stood at 0.5 nM.

Source of the values: publication PMC7452893 (2020).
